Experimental data taken from patent publication US20250011363A1, “OPTIMIZED SHORTENED PEPTIDE THAT BINDS TO ACETYLCHOLINE RECEPTOR, AND USE THEREOF” (SKINMED CO., LTD., priority 2021, published 2025).

Molecular target: acetylcholine receptor
Assay: SPR, AchR on chip, peptide 10 uM

Binder | Binding affinity (RU)
RVQRR [5mer-10] | 55 RU
KSQRR [5mer-324] | 58 RU
RVVQR [5mer-320] | 75 RU
KRYCR [5mer-312] | 81 RU
RLRCR [5mer-308] | 84 RU
KLYTK [5mer-16] | 66 RU
RLISK [5mer-13] | 52 RU
KRFQR [5mer-19] | 72 RU
RVQTR [5mer-319] | 74 RU
RVFLR [5mer-12] | 70 RU
RGVQR [5mer-9] | 77 RU
KQRLR [5mer-11] | 84 RU
KWFTR [5mer-21] | 63 RU
KRIQR [5mer-325] | 50 RU
KWYYR [5mer-323] | 77 RU
RQQLK [5mer-22] | 66 RU
RRVQR [5mer-317] | 86 RU
RQRSR [5mer-8] | 51 RU

Binder | Binding affinity (RU)
RGRYK [5mer-20] | 78 RU
RWLCK [5mer-14] | 63 RU
KSQCR [5mer-24] | 67 RU
KVVYK [5mer-25] | 60 RU
KGVCK [5mer-15] | 75 RU
RSQLK [5mer-313] | 75 RU
KQRCK [5mer-307] | 82 RU
KVQYR [5mer-309] | 70 RU
KQYLR [5mer-316] | 73 RU
KLFSR [5mer-315] | 77 RU
KRIYK [5mer-17] | 70 RU
KRVCK [5mer-318] | 64 RU
RQLRR [5mer-18] | 69 RU
KSRQR [5mer-310] | 78 RU
KWLYK [5mer-23] | 86 RU
RSLSR [5mer-321] | 68 RU
RWYTR [5mer-314] | 80 RU
RRQSR [5mer-322] | 84 RU

Molecular target: acetylcholine receptor
Assay: SPR, AchR immobilised on chip, peptide 10 uM

Binder | Binding affinity (RU)
RETHK [5mer-1104] | 12 RU
RNTIK [5mer-819] | 19 RU
RFSDR [5mer-803] | 11 RU
KFHKK [5mer-810] | 11 RU
RPTNR [5mer-805] | 27 RU
KFHGR [5mer-801] | 20 RU
RKTFR [5mer-1114] | 28 RU
RKSGK [5mer-809] | 15 RU
KHWHR [5mer-818] | 12 RU
KFCIR [5mer-808] | 13 RU
KEPEK [5mer-1115] | 27 RU
RHKIR [5mer-1117] | 11 RU
KMTMR [5mer-811] | 32 RU
RYTER [5mer-1106] | 18 RU
RTTFK [5mer-1112] | 29 RU
RAHVR [5mer-813] | 21 RU
RITMR [5mer-814] | 11 RU
KTHKK [5mer-1102] | 20 RU
RKNKK [5mer-807] | 20 RU
KEAPR [5mer-800] | 29 RU
RIMHK [5mer-820] | 28 RU
RPWKR [5mer-1100] | 24 RU

Binder | Binding affinity (RU)
RNTIR [5mer-804] | 20 RU
KTEGR [5mer-812] | 27 RU
KAEHK [5mer-1111] | 12 RU
KECFR [5mer-1116] | 24 RU
RPTKR [5mer-1105] | 33 RU
KYKNR [5mer-1101] | 11 RU
KMNIK [5mer-1119] | 19 RU
RATAR [5mer-1099] | 14 RU
KKSHR [5mer-1103] | 18 RU
RKMFR [5mer-806] | 17 RU
KDKPR [5mer-799] | 24 RU
RHMER [5mer-1113] | 19 RU
RKDHR [5mer-815] | 27 RU
RMDAR [5mer-1118] | 28 RU
RMHMK [5mer-1110] | 13 RU
RKPIK [5mer-816] | 26 RU
KCHPK [5mer-1109] | 14 RU
RPWHK [5mer-1107] | 21 RU
RNPIR [5mer-1108] | 19 RU
RHKDR [5mer-817] | 23 RU
RITVR [5mer-802] | 27 RU
